# Experimental data from patent publication US20110059504A1 (GENERAL HOSPITAL, published 2011).
# Read-outs that look alike come from different tables or passages of the source.
# Legend:
# [1] = molecular target: chicken lysozyme (chicken, UniProt P00698 19-147); assay: phage ELISA on target-coated Maxisorp wells, anti-M13 pVIII-HRP
# Procedure: (§1) An Elisa screening was performed after four rounds of selection to identify binding clones. Randomly picked phagemid clones were incubated with target-coated or buffer-coated Maxisorp wells at room temperature for 1 hour. Unbound phage was removed and the wells were washed eight times with PBS pH 7.4, 0.05% Tween-20. Binding was determined with an anti-M13 pVIII antibody-HRP conjugate (GE). […] Varying levels of binding to targets and the Maxisorp surface were also observed in other clones.
# [2] = molecular target: T1, FcεRI-MBP (UniProt P12319 26-205); assay: as above
# T1 construct: Produced in E. coli; order of the two parts is printed both ways (mbp-FcεRI, FcεRI-MBP); also called mbp-FcεRI; mbpFcεRI
# T1 sequence (looked up): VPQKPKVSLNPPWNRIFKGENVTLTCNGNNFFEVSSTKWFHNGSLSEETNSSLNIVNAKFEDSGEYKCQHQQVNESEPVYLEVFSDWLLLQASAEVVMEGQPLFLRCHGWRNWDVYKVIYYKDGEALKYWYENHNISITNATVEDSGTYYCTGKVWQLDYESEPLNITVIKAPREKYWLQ
# Procedure: as §1
# [3] = molecular target: T2, streptavidin beads (M-280 beads) (UniProt P22629 37-163, limits assumed); assay: radioactive equilibrium binding assay
# T2 construct: Capture beads used as negative control
# [4] = molecular target: T3, human β-NGF (human, UniProt P01138 122-241, biotinylated (site not stated)); assay: radioactive equilibrium binding assay
# T3 construct: also called biotinylated human β-NGF; nerve growth factor
# Procedure: (§2) Affinities of selected F13β2 binders to biotinylated myostatin were determined in radioactive equilibrium binding assay (FIGS. 11A and 11B; Table 3). ³⁵S-labeled binder proteins from selection pools and single clones were produced in vitro in a rabbit reticulocyte lysate translation kit (Ambion) and purified on M2-agarose (Sigma). Varying concentrations of biotinylated human myostatin (0-100 nM) or other proteins (protein 1: 100 nM; peptide 1: 250 nM; protein 2: 50 nM) were incubated with a constant concentration of the purified binder protein (1 or 2 nM) at 30° C. for 30 min in buffer B (1×PBS, 0.02% Triton X-100 [pH 7.4]). The receptor-binder complexes were captured by using 25 μl of M280 or Protein A (Dynal) (protein 2) magnetic beads for 10 min at room temperature on a Kingfisher instrument (Thermo Fisher Scientific). The beads were washed five times with 100 μl buffer B, and the amount of ³⁵S-methionine remained on the beads was measured by scintillation counting. Data were analyzed by using the GraphPad Prism software (GraphPad Software, Inc., San Diego, Calif.), fitted with a one-site, nonlinear binding equation. For inhibition assay the binding of ³⁵S-labeled proteins to 20 or 25 nM of biotinylated human myostatin was performed in the presence of varying concentrations of inhibitor (human activin receptor IIB/Fc chimera (R&D Systems, Minneapolis, Minn.) (0-250 nM); protein 1 (100 nM), peptide 1 (250 nM), protein 2 (50 nM); proteins, produced in E. coli, M17, M7, M29, M21, M1-1, WT F13β2 (500 nM)).
# Selected F13β2 binders were tested for binding to biotinylated β-NGF in radioactive equilibrium binding assay (FIGS. 21A and 21B; Table 4) according to the procedure described for myostatin binders. NGF at concentrations up to 100 nM was incubated with a constant concentration of the purified binder protein (1 or 2 nM) at 30° C. for 1 hour. Affinities to human β-NGF differed greatly between various binders.
# [5] = molecular target: T3, human β-NGF; assay: radioactive equilibrium binding assay; remark: listed apart in the source
# [6] = molecular target: T4, human myostatin (human, UniProt O14793 267-375, biotinylated in selections and radioactive assays (site not stated)); assay: radioactive equilibrium binding assay
# T4 construct: Phage ELISA used both unbiotinylated and biotinylated myostatin; also called biotinylated human myostatin; myostatin-biotin
# T4 sequence (looked up): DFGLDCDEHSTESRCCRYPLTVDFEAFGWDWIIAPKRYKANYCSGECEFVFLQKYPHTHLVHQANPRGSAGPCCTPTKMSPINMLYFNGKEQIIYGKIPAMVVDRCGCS
# Procedure: as §2
# T3 sequence (P01138 122-241 limits assumed): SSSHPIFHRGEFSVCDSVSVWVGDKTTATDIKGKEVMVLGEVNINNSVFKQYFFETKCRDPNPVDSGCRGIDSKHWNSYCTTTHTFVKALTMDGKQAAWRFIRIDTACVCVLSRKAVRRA
# T2 sequence (P22629 37-163 limits assumed): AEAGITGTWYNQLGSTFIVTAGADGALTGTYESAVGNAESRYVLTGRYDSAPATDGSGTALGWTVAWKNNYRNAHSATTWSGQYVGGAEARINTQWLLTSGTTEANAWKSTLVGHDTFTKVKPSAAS
# chicken lysozyme, sequence (P00698 19-147 limits assumed): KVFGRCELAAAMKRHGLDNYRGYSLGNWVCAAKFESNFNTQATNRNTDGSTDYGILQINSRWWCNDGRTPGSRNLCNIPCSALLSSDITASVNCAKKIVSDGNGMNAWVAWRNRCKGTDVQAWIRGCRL
binder,measurement,setting,value
"FG6 phage clone ANPIKHM / RPTAG / LGVLRR (designed binder, not shown: 6-his, myc tag and C-terminal domain of M13 pIII (phage display fusion)) TIPEIIIKVRGTQVVGSDMTVIVEFANPIKHMLRNVWVHLDGPGVTRPMKKMFREIRPTAGVQWEEVVRPWVSGHRKLIASMSLGVLRRVYGELDVQIQRR",Target Binding,[1],2.83
"FG6 phage clone RRPTKGN / GPGQV / LGMLRR (designed binder, not shown: 6-his, myc tag and C-terminal domain of M13 pIII (phage display fusion)) TIPEIIIKVRGTQVVGSDMTVIVEFRRPTKGNLRNVWVHLDGPGVTRPMKKMFREIGPGQVVQWEEVVRPWVSGHRKLIASMSLGMLRRVYGELDVQIQRR",Target Binding,[1],2.45
"FG6+6 phage clone TNPLRGT / PPNVK / GLSTAGRWKRVR (designed binder, not shown: 6-his, myc tag and C-terminal domain of M13 pIII (phage display fusion)) TIPEIIIKVRGTQVVGSDMTVIVEFTNPLRGTLRNVWVHLDGPGVTRPMKKMFREIPPNVKVQWEEVVRPWVSGHRKLIASMSGLSTAGRWKRVRVYGELDVQIQRR",Target Binding,[2],4
"61363-C1 (G17D) (designed binder, group N3; G17D) MTIPEIIIKVRGTQVVDSDMTVIVEFTDTVLEILRTVWVHLDGPGVTRPMKKMFPHIRPKVTVQWEEVVRPWVSGHRKLIASMLIASLRHVYGELDVQIQRRDYKDDDDK",binding result,[3],no binding
same,B max,[4],1.8%
same,Kd,[4],2.8 nM
"61362-C6 (designed binder, group N1) MTIPEIIIKVRGTQVVGSDMTVIVEFTNPLNEPLLFVWVHLDGPGVTRPMKKMFRIISPHATVQWEEVVRPWVSGHRKLIASMSIGFQAHVYGELDVQIQRRDYKDDDDK",binding result,[3],no binding
same,B max,[4],5.5%
same,Kd,[4],24 nM
"FG6 phage clone TIPHRGR / QPNVP / RAFLRH (designed binder, not shown: 6-his, myc tag and C-terminal domain of M13 pIII (phage display fusion)) TIPEIIIKVRGTQVVGSDMTVIVEFTIPHRGRLRNVWVHLDGPGVTRPMKKMFREIQPNVPVQWEEVVRPWVSGHRKLIASMSRAFLRHVYGELDVQIQRR",Target Binding,[1],0.34
"FG6+6 phage clone MNPRMEM / HPDSD / RLWTLWMARWRW (designed binder, not shown: 6-his, myc tag and C-terminal domain of M13 pIII (phage display fusion)) TIPEIIIKVRGTQVVGSDMTVIVEFMNPRMEMLRNVWVHLDGPGVTRPMKKMFREIHPDSDVQWEEVVRPWVSGHRKLIASMSRLWTLWMARWRWVYGELDVQIQRR",Target Binding,[2],2.35
"FG6 phage clone PSPFIEN / RPECI / RGWLRS (designed binder, not shown: 6-his, myc tag and C-terminal domain of M13 pIII (phage display fusion)) TIPEIIIKVRGTQVVGSDMTVIVEFPSPFIENLRNVWVHLDGPGVTRPMKKMFREIRPECIVQWEEVVRPWVSGHRKLIASMSRGWLRSVYGELDVQIQRR",Target Binding,[1],1.19
"FG6+6 phage clone TNPRRRV / RPRST / WNSRWPAPTRRR (designed binder, not shown: 6-his, myc tag and C-terminal domain of M13 pIII (phage display fusion)) TIPEIIIKVRGTQVVGSDMTVIVEFTNPRRRVLRNVWVHLDGPGVTRPMKKMFREIRPRSTVQWEEVVRPWVSGHRKLIASMSWNSRWPAPTRRRVYGELDVQIQRR",Target Binding,[2],1.73
"61363-H1 (V15A) (designed binder, group N4; V15A) MTIPEIIIKVRGTQAVGSDMTVIVEFTNPLKETLYNVWVHLDGPGVTRPMKKMFWEIRTNHPVQWEEVVRPWVSGHRKLIASMSSNSRDHVYGELDVQIQRRDYKDDDDK",binding result,[3],no binding
same,Kd,[5],< 100 nM
same,B max,[4],8.4%
same,Kd,[4],22.9 nM
"39633-C5 (designed binder, group M1-A50; V91L; also called M34 (clone ID)) MTIPEIIIKVRGTQVVGSDMTVIVEFTNPFKETLRSVWVHLDGPGVTRPMKKMFRVIPPKTTVQWEEVVRPWVSGHRKLIASMRTQYLIHLYGELDVQIQRRDYKDDDDK",B max,[6],93%
same,Kd,[6],30.8 nM
"39633-D5 (designed binder, group M4-A50; also called 39633-D5/yes) MTIPEIIIKVRGTQVVGSDMTVIVEFTNPFKETLRSVWVHLDGPGVTRPMKKMFREIPPKTTVQWEEVVRPWVSGHRKLIASMCEPSLDHVYGELDVQIQRRDYKDDDDK",B max,[6],6.91%
same,Kd,[6],8.69 nM
"39908-F8 (K52R) (designed binder, group M1-A50; V91L, K52R) MTIPEIIIKVRGTQVVGSDMTVIVEFTNPFKETLRSVWVHLDGPGVTRPMKRMFREIPPETTVQWEEVVRPWVSGHRKLIASMRTQYLIHLYGELDVQIQRRDYKDDDDK",B max,[6],45.7%
same,Kd,[6],36.6 nM
"39908-E1 (designed binder, group M3-A50; FG loop -TLRPW; V39M; also called M04 (clone ID)) MTIPEIIIKVRGTQVVGSDMTVIVEFTNLWKEALRNVWMHLDGPGVTRPMKKMFREIATMSTVQWEEVVRPWVSGHRKLIASMTLRPWHVYGELDVQIQRRDYKDDDDK",B max,[6],40.2%
same,Kd,[6],14.8 nM
"FG6 phage clone INPLQVS / GPSSA / IYRYGL (designed binder, not shown: 6-his, myc tag and C-terminal domain of M13 pIII (phage display fusion)) TIPEIIIKVRGTQVVGSDMTVIVEFINPLQVSLRNVWVHLDGPGVTRPMKKMFREIGPSSAVQWEEVVRPWVSGHRKLIASMSIYRYGLVYGELDVQIQRR",Target Binding,[1],4
"FG6+6 phage clone SNPLSRP / RPHSN / SRSLWLSIGKRH (designed binder, not shown: 6-his, myc tag and C-terminal domain of M13 pIII (phage display fusion)) TIPEIIIKVRGTQVVGSDMTVIVEFSNPLSRPLRNVWVHLDGPGVTRPMKKMFREIRPHSNVQWEEVVRPWVSGHRKLIASMSSRSLWLSIGKRHVYGELDVQIQRR",Target Binding,[2],3.31
"61362-F2 (designed binder, group N2; Δ67-70, P71A) MTIPEIIIKVRGTQVVGSDMTVIVEFINTSNETLPSVWVHLDGPGVTRPMKKMFPEIPPNSSVQWEAWVSGHRKLIASMIRDSSRHVYGELDVQIQRRDYKDDDDK",binding result,[3],no binding
same,Kd,[5],< 100 nM
same,B max,[4],35.4%
same,Kd,[4],62 nM
"61363-C12 (G45E) (designed binder, group N4; G45E) MTIPEIIIKVRGTQVVGSDMTVIVEFTNPLEENLYNVWVHLDGPEVTRPMKKMFYQISTNIPVQWEEVVRPWVSGHRKLIASMGAHTKDHVYGELDVQIQRRDYKDDDDK",binding result,[3],no binding
same,Kd,[5],< 100 nM
same,B max,[4],33.6%
same,Kd,[4],36 nM
"39908-C11 (designed binder, group M3-A50; ΔS82, M83R; also called M22 (clone ID)) MTIPEIIIKVRGTQVVGSDMTVIVEFSNPFKETLRNVWVHLDGPGVTRPMKKMFSEIRTNATVQWEEVVRPWVSGHRKLIARCSLSPWHVYGELDVQIQRRDYKDDDDK",B max,[6],73.7%
same,Kd,[6],17 nM
"39908-D2 (designed binder, group M3-A50; ΔS82, M83R; also called M29 (clone ID)) MTIPEIIIKVRGTQVVGSDMTVIVEFTNPFKETLRSVWVHLDGPGVTRPMKKMFREIPPKTTVQWEEVVRPWVSGHRKLIARCSLSPWHVYGELDVQIQRRDYKDDDDK",B max,[6],68.8%
same,Kd,[6],23.3 nM
"39908-E5 (designed binder, group M3-A50; ΔS82, M83R; also called M56 (clone ID)) MTIPEIIIKVRGTQVVGSDMTVIVEFSNPFKETLRNVWVHLDGPGVTRPMKKMFSEIRPNSTVQWEEVVRPWVSGHRKLIARCSLSPWHVYGELDVQIQRRDYKDDDDK",B max,[6],77.8%
same,Kd,[6],21.9 nM
"39908-H4 (designed binder, group M3-A50; ΔS82, M83R; also called M015 (clone ID)) MTIPEIIIKVRGTQVVGSDMTVIVEFSNPFKETLRNVWVHLDGPGVTRPMKKMFRDIRPKTKVQWEEVVRPWVSGHRKLIARCQLLPWHVYGELDVQIQRRDYKDDDDK",B max,[6],68.6%
same,Kd,[6],15.8 nM
"39908-F5 (designed binder, group M3-A50; ΔS82, M83R; also called M16 (clone ID)) MTIPEIIIKVRGTQVVGSDMTVIVEFTNPFKETLRNVWVHLDGPGVTRPMKKMFCEIRPNSIVQWEEVVRPWVSGHRKLIARCQLLPWHVYGELDVQIQRRDYKDDDDK",B max,[6],67.2%
same,Kd,[6],27.1 nM
"FG6+6 phage clone GNPTKET / RPRSM / YRPRRGGMRLRH (designed binder, not shown: 6-his, myc tag and C-terminal domain of M13 pIII (phage display fusion)) TIPEIIIKVRGTQVVGSDMTVIVEFGNPTKETLRNVWVHLDGPGVTRPMKKMFREIRPRSMVQWEEVVRPWVSGHRKLIASMSYRPRRGGMRLRHVYGELDVQIQRR",Target Binding,[2],4
